Residue numbers refer to the chain shown, from its start.
How the values were obtained:
SARS-CoV-1 Spike = SARS-CoV-1 Spike (SARS-CoV-1, UniProt P59594 14-1195); assay: ELISA
[1] = molecular target: SARS-CoV-2 (WIV02 isolate) prefusion stabilized spike trimer protein (UniProt P0DTC2 14-1213); assay: ELISA

B1: 8-A17-A (antibody, V domains shown)
VH: QVQLKESGPGLVAPSQSLSITCTVSGFSLTSYAISWVRQPPGKGLEWLGVVWPGGGTNYNSALKSRLSINKDNSKSQVFLKMNSLQTDDTGRYYCARTGYHFDYWGQGTTLTVSS
VL: QIVLTQSPAIMSASPGEKVTMTCSVSSSVSYMHWYQQKSGTSPKRWIYDTSKLASGVPARFSGSGSGTSYSLTISSMEAEDAATYYCQQWSSNPPMYTFGGGTKLEIK
For B1, the IC50 (SARS-CoV-1 Spike) was 5.1 nM.

B2: 3-P7-A (antibody, V domains shown)
VH: QAYLQQSGAELVRPGASVKMSCKASGYTFTSYSMHWVKQTPRQGLEWIGAIYPGNDDTSYNQKFKGKATLTVDKSSSTAYMQLSSLTSEDSAVYFCTRDYTNYPFDYWGQGTTLTVSS
VL: DIVLTQSPASLPVSLGQRATISCRASKSVSTSGYSYMHWYQQRPGQPPKLLIYLASNLESGVPARFSASGSGTDFTLNIHPVEEEDAATYYCQHSRELPPTFGGGTKVEIK
Work on B2 yielded an IC50 [1] of 8.86 nM.

B3: 1-B11-A (antibody, V domains shown)
VH: QVQLQQSGPELVKPGASVKISCKASGYTFTDHYINWVKQRPGQGLEWIGWIFPGSGSTYYNEQFKGKATLTVDKSSNTAYMLLSSLTSEDSAVYFCARSGGLRLGFAYWGQGTLVTVSA
VL: DIQMTQTTSSLSASLGDRVTISCRASQDISNYLNWYQQKPDGTVKLLIYYTSRLHSGVPSRFSGSGSGTDYSLTISNLEQEDISTYFCQQVNTLPYTFGGGTKLEIK
Work on B3 yielded an IC50 (SARS-CoV-1 Spike) of 20.9 nM.

B4: 6-O12-A (antibody, V domains shown)
VH: QVQLQQPGTELVKPGASVKLSCKASGYTFTSYWMHWVKQRPGQGLEWIGNINPSNGGTNYNEKFRSKATLTVDKSSSTAYMQLSSLTSEDSAVYYCARLGWFLPLGSWGQGTTLTVSS
VL: QIVLTQSPAIMSASLGEVITLTCSASSSVSYMHWYQQKSGTSPKLLIYSTSNLASGVPSRFSGSGSGTFYSLTISSVEAEDAADYYCHQWSGYMYTFGGGTKLEIK
Work on B4 yielded an IC50 (SARS-CoV-1 Spike) of 5.4 nM and an IC50 [1] of 7.62 nM.

B5: 9-F6-A (antibody, V domains shown)
VH: EVQLQQSGPELVKPGASVKMSCKASGYTFTSYIMHWVKQKPGQGLEWIGYILPYNDGTKYNEKFKGKATLTSDKSSSTAYMELRSLTSEDSAVYYCARWGYSNFLDSWGQGTTLTVSS
VL: B3 VL with S30N, S76R, S84A, V91G, Y96P
In the case of B5, the IC50 (SARS-CoV-1 Spike) is reported as 5.55 nM and the IC50 [1] is reported as 16.7 nM.

B6: 2-G20-A (antibody, V domains shown)
VH: EVQLQQSGPELVKPGASVKMSCKASGYTFPSYVLHWVKQKPGQGLEWIGYIYPYNDGTNYNEKFKGKATLTSDKSSSTAYMELSSLTSEDSAVYYCARGDYGDSAWFPYWGQGTLVTVSA
VL: B2 VL with P12A, R43K, E59K, A68G, S69G, H94L, P100W, V108L
B6 gave an IC50 (SARS-CoV-1 Spike) of 6.65 nM and an IC50 [1] of 18.3 nM.

B7: 4-M3-A (antibody, V domains shown)
VH: EVQLQQSGPELVKPGDSVKISCKASGYSFTGYFMNWVMQSHGKSLEWIGRINPNNGETFYNQKFKGKATLTVDKSSDTAHMELRSLTSEDSAVYYCARGGTGTGWGQGTTLTVSS
VL: DILMTQSPSSMSVSLGDTVSITCHASQGISSNIGWLQQKPGKSFKGLIYYGTNLEDGVPSRFSGSGSGADYSLTISSLESEDLADYYCIQYAQFPYTFGGGTKLEIK
B7 was tested, and the IC50 [1] was 7.36 nM.

B8: 1-L10-A (antibody, V domains shown)
VH: EVKLEESGGGLVQPGGSMKLSCVASGFTFNNYWMNWVRQSPEKGLEWVAQMRLKSDNYATHYAESVKGRFTISRDDSKSSVYLQMNNLRAEDTGIYYCIEGYWTYWGQGTLVTVSA
VL: QIVLTQSPAIMSASLGERVTMTCTASSSVSSSYLHWYQQKPGSSPKLWIYSTSNLASGVPARFSGNGSGTSYSLTISSMEAEDAATYYCLQYHRSPPYTFGGGTKLEIK
With B8 the IC50 (SARS-CoV-1 Spike) was 7.5 nM and the IC50 [1] was 8.65 nM.

B9: 10-B13-A (antibody, V domains shown)
VH: QVQLQQSGAELVKPGASVKISCKASGYAFSNYWMNWVKQRPGKGLEWIGQIYPGDGDTNYNGNFKGKATLTADKSSSTAYIQLSSLTSEDSAVYFCGRGFIATVVEVFDHWGLGTTLTVSS
VL: B3 VL with H55Q, S67T, S84A, V91G, Y96W
In the case of B9, the IC50 (SARS-CoV-1 Spike) is reported as 19.4 nM.

B10: 2-O12-A (antibody, V domains shown)
VH: EVQLQQSGPELVKPGASVKISCKASGYTFTDYYMNWVKQSHGKSLEWIGDINSNNGGTTYDQKFKGKATLTVDRSSSTAYMELRSLTSEDSAVYYCARRGDGHFGGFTYWGQGTLVTVSA
VL: not shown
For B10, the IC50 [1] was 14.9 nM.

B11: 8-H5-A (antibody, V domains shown)
VH: QVTLKESGPGILQSSQTLSLTCSLSGFSLSTSGMGVSWVRQPSGKGLEWLAHIYWDDDKRYTPSLKSRLTISTDSSRKQVFLKITSVDTADTATYYCARRDLHDYDGWFAYWGQGTLVTVSA
VL: DIVMTQSQKFMSTAVGDRVSVTCKASQNVGTNVAWYQQKPGQSPKALIYSASFRYSGVPDRFSGSGSGTDFTLTISNVQSEDLAEYFCQQYNSYPLTFGSGTKLEIK
B11 showed an IC50 [1] of 12.8 nM.

B12: 8-L17-A (antibody, V domains shown)
VH: EVQLVESGGGLVQPKGSLKLSCAASGFTFNTYAMHWVRQAPGKGLEWVARIRSKSSNYARYYADSVKDRFTISRDDSQSMLYLQMNNLKTEDTAMYYCVRDHDYYGSSYWFAYWGQGTLVTVSA
VL: DVVMTQTPLSLPVSLGDQASISCRSSQSLVHNNGNTYLHWYLQKPGQSPKLLIYKVSNRFSGVPDRFSGSGSGTDFTLKISRVEAEDLGVYFCSQSTHVPWTFGGGTKLEIK
B12 was tested, and the IC50 [1] was 60.8 nM.

B13: 10-O24-A (antibody, V domains shown)
VH: B2 VH with K74R, T101S
VL: B2 VL with P12A, S14F, A68G, V108L
B13 was tested, and the IC50 [1] was 5.84 nM.

B14: 4-N22-A (antibody, V domains shown)
VH: QVQLQQPGTELVKPGASVKLSCKASGYTFTNYWMYWVKQRPGQGLDWIGNINPSNGGTNYNEKFKSKATLTVDKSSSTAYMQLSSLTSEDSAVYYCARETGNYWGQGTTLTVSS
VL: B7 VL with T22S, Y50H, L83F, I89V
Work on B14 yielded an IC50 [1] of 4.93 nM.

B15: 9-K4-A (antibody, V domains shown)
VH: B2 VH with T30P, S31N, M34F, K63R, T97A, T101S, Y107C
VL: B2 VL with P12A, R43K, A68G, V108L
For B15, the IC50 [1] was 72.6 nM.

B16: 2-P2-A (antibody, V domains shown)
VH: EVQLQQSGAELVRPGSSVKMSCKTSGYTFTSYGINWVKQRPGQGLEWIGYIYIGNGYTEYNEKFKGKATLTSDTSSSTAYMQLSSLTSEDSAIYFCARGGVDYWGQGTTLTVSS
VL: B12 VL with V3L, L29I, N32S, H39E, F92Y, S94F, S96G, T97S, W101Y
Binder B16 has an IC50 (SARS-CoV-1 Spike) of 17.9 nM.

B17: 2-H7-A (antibody, V domains shown)
VH: QAYLQQSGAELVRPGASVKMSCKASGYTFTGYTMHWVKQTPRQGLEWIGAIYPENGDTSYNQKFKGKATLTVDKSSSTAYMQLSSLTSEDSAVYFCARDGYDVLYGMDYWGQGTSVTVSS
VL: B2 VL with P12A, R43K, A68G, P100W, V108L, E109D
With B17 the IC50 [1] was 7.21 nM.

B18: 3-E2-A (antibody, V domains shown)
VH: B10 VH with S53P, T59S, D61T, R74K, T78K, F104Y
VL: not shown
Work on B18 yielded an IC50 [1] of 18.4 nM.

B19: 8-H3-A (antibody, V domains shown)
VH: B12 VH with R60T, A112T
VL: B12 VL with N32D, Y41F, A85T
B19 gave an IC50 [1] of 19.4 nM.

B20: 4-L4-A (antibody, V domains shown)
VH: QAYLQQSGAELVRPGASVKMSCKASGYTFTSYTVHWVKQTPRQGLEWIGGIYPGNVDTSYNQNFKGKATLTVDKSSSTAYMQLSSLTSEDSAVYFCARDGYYAMDYWGQGTSVTVSS
VL: not shown
For B20, the IC50 [1] was 8.34 nM.
